This experiment has as its target N-terminally His-tagged recombinant ribosomal protein S1 of E. coli (from plasmid p16rpsAHis) (E. coli) (UniProt P0AG67). The experiment is described as follows: native gel or EMSA; constant molar amount of S1 mixed with increasing RIII (RIII:S1 0.1:1 to 5:1), 10 min at room temperature, proteins dialysed against 50 mM sodium phosphate pH 7.4, 100 mM NaCl; native 14% PAGE, Coomassie. In general terms: A gel shift assay detects complexes by their altered migration in electrophoresis.

Turning to “N-terminally 6His-tagged RIII protein of the T4 phage (from plasmid p21drIIIHis) (natural protein)”, the stoichiometry N (RIII:S1 molar ratio) came to 1.
